Experimental data as given in publication PMC10786891, “Massively parallel profiling of RNA-targeting CRISPR-Cas13d”.
Positions count from the first letter of the chain named. Names may count otherwise.

T1: EsCas13d, nuclease-dead (Eubacterium siraeum, UniProt B0MS50, R295A;H300A;R849A;H854A)
T1 sequence: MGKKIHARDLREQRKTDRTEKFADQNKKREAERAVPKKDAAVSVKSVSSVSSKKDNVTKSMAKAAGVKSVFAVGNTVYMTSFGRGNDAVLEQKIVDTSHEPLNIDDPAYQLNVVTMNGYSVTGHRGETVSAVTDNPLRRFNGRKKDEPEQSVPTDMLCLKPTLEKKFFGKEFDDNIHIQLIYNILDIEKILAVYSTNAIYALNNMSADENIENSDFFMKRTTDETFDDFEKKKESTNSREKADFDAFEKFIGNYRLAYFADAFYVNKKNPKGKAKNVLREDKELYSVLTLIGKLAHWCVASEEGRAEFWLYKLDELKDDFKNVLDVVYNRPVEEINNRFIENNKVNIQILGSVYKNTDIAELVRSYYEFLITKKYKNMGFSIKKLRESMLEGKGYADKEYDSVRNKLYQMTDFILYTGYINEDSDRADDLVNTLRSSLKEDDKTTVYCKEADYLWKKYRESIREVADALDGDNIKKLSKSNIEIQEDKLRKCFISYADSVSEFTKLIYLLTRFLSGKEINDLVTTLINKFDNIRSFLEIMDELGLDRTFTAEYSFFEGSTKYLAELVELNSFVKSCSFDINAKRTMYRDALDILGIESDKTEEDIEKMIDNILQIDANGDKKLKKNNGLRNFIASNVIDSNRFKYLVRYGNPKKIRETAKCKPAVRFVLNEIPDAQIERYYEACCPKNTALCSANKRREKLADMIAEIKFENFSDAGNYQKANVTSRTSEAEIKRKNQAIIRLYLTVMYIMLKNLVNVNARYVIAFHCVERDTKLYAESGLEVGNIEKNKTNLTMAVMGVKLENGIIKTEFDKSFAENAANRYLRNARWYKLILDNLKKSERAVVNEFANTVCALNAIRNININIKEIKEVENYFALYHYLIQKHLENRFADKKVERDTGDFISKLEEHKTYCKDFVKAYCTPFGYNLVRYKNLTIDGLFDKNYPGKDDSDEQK

B1: target 1 U10A,A20C (mixed)
RNA 1: CACCCGUGCAAAAAUGCAGGGGUCUAAAACUGAGCGGAUAACCUCUCUAUGG
RNA 2: GGGAAUGGAUCCACAUCUACGAAUUCGUACCCUAGAGAGGUAAUCCGCUCACCGAGAUCGGAAGAGCACACGU
B2: target 1 A1U,G5C (mixed)
RNA 1: B1 RNA 1
RNA 2: B1 RNA 2 with C32A, A42U, G47C, A51U
B3: target 1 insC 3' of 17,insA 3' of 6 (mixed)
RNA 1: B1 RNA 1
RNA 2: GGGAAUGGAUCCACAUCUACGAAUUCGUACCAUAGCAGAGGUUAUCCAGCUCACCGAGAUCGGAAGAGCACACGU
B4: target 1 C7A,A14C (mixed)
RNA 1: B1 RNA 1
RNA 2: B1 RNA 2 with C32A, A38C, A42U, C45A
B5: target 1 U8G,G12A (mixed)
RNA 1: B1 RNA 1
RNA 2: B1 RNA 2 with C32A, G40A, A42U, U44G
B6: target 1 C7A,C21A (mixed)
RNA 1: B1 RNA 1
RNA 2: B1 RNA 2 with C31A, C32A, A42U, C45A
B7: target 1 A1G,G5C (mixed)
RNA 1: B1 RNA 1
RNA 2: B1 RNA 2 with C32A, A42U, G47C, A51G
B8: target 1 A9G,A14G (mixed)
RNA 1: B1 RNA 1
RNA 2: B1 RNA 2 with C32A, A38G, A42U, A43G
B9: target 1 insG 3' of 14,insA 3' of 10 (mixed)
RNA 1: B1 RNA 1
RNA 2: B3 RNA 2 with C36A, A37G, G38A, A39G, U45A, C46U, A48C
B10: target 1 C7U,U11A (mixed)
RNA 1: B1 RNA 1
RNA 2: B1 RNA 2 with C32A, U41A, A42U, C45U
B11: target 1 C7U,A9G (mixed)
RNA 1: B1 RNA 1
RNA 2: B1 RNA 2 with C32A, A42U, A43G, C45U
B12: target 1 insA 3' of 22,insC 3' of 8 (mixed)
RNA 1: B1 RNA 1
RNA 2: B3 RNA 2 with C31A, A32C, U33A, A34U, G35A, C36G, A48C
B13: target 1 C4U,G13C (mixed)
RNA 1: B1 RNA 1
RNA 2: B1 RNA 2 with C32A, G39C, A42U, C48U
B14: target 1 G12A,C22A (mixed)
RNA 1: B1 RNA 1
RNA 2: B1 RNA 2 with C30A, C32A, G40A, A42U
B15: target 1 insG 3' of 19,insA 3' of 17 (mixed)
RNA 1: B1 RNA 1
RNA 2: GGGAAUGGAUCCACAUCUACGAAUUCGUACCAUGAGAAGAGGUUAUCCGCUCACCGAGAUCGGAAGAGCACACGU
B16: target 1 insG 3' of 22,insG 3' of 8 (mixed)
RNA 1: B1 RNA 1
RNA 2: B3 RNA 2 with C31G, A32C, U33A, A34U, G35A, C36G, C46G, A48C
B17: target 1 insC 3' of 18,insG 3' of 14 (mixed)
RNA 1: B1 RNA 1
RNA 2: B15 RNA 2 with G34A, A35C, A38G, G39A, A40G
B18: target 1 insC 3' of 12,insA 3' of 12 (mixed)
RNA 1: B1 RNA 1
RNA 2: B15 RNA 2 with G34A, A35G, G36A, A37G, A40G, G41C, G42A
B19: target 1 del5,del8 (mixed)
RNA 1: B1 RNA 1
RNA 2: GGGAAUGGAUCCACAUCUACGAAUUCGUACCAUAGAGAGGUUACCCUCACCGAGAUCGGAAGAGCACACGU
B20: target 1 insA 3' of 21,insU 3' of 12 (mixed)
RNA 1: B1 RNA 1
RNA 2: B15 RNA 2 with U33A, G34U, A38G, G39A, A40G, G42U
B21: target 1 U3A,C21A (mixed)
RNA 1: B1 RNA 1
RNA 2: B1 RNA 2 with C31A, C32A, A42U, U49A
B22: target 1 insC 3' of 20,insU 3' of 4 (mixed)
RNA 1: B1 RNA 1
RNA 2: B3 RNA 2 with U33C, A34U, G35A, C36G, A48G, G49C, C50U
B23: target 1 A9C,A14G (mixed)
RNA 1: B1 RNA 1
RNA 2: B1 RNA 2 with C32A, A38G, A42U, A43C
B24: target 1 C2U,C7U (mixed)
RNA 1: B1 RNA 1
RNA 2: B1 RNA 2 with C32A, A42U, C45U, C50U
B25: target 1 insA 3' of 21,insU 3' of 2 (mixed)
RNA 1: B1 RNA 1
RNA 2: B3 RNA 2 with U33A, A34U, G35A, C36G, A48G, G49C, C50U, U51C, C52U
B26: target 1 insA 3' of 10,insA 3' of 5 (mixed)
RNA 1: B1 RNA 1
RNA 2: B3 RNA 2 with C36A, A37G, G38A, A39G, G41U, U43A, A48G, G49A
B27: target 1 A9G,A20C (mixed)
RNA 1: B1 RNA 1
RNA 2: B1 RNA 2 with A42U, A43G
B28: target 1 U19A,C21A (mixed)
RNA 1: B1 RNA 1
RNA 2: B1 RNA 2 with C31A, C32A, U33A, A42U
B29: target 1 insU 3' of 21,insU 3' of 6 (mixed)
RNA 1: B1 RNA 1
RNA 2: B3 RNA 2 with A32U, U33A, A34U, G35A, C36G, A48U
B30: target 1 C2G,G5U (mixed)
RNA 1: B1 RNA 1
RNA 2: B1 RNA 2 with C32A, A42U, G47U, C50G
B31: target 1 complement block 1-6 (mixed)
RNA 1: B1 RNA 1
RNA 2: B1 RNA 2 with C32A, A42U, C46G, G47C, C48G, U49A, C50G, A51U
B32: target 1 G5U,A9G (mixed)
RNA 1: B1 RNA 1
RNA 2: B1 RNA 2 with C32A, A42U, A43G, G47U
B33: target 1 insC 3' of 8,insC 3' of 8 (mixed)
RNA 1: B1 RNA 1
RNA 2: B3 RNA 2 with C36A, A37G, G38A, A39G, G41U, U43A, A44U, U45C, A48C
B34: target 1 U19C,C21A (mixed)
RNA 1: B1 RNA 1
RNA 2: B1 RNA 2 with C31A, C32A, U33C, A42U
B35: target 1 G12U,A20C (mixed)
RNA 1: B1 RNA 1
RNA 2: B1 RNA 2 with G40U, A42U

Target: T1, EsCas13d, nuclease-dead
Test: crRNA (strand 1, pre-loaded); Mg2+; 40 mM Tris-HCl pH 7.5, 150 mM NaCl, 6 mM MgCl2, 1 mM DTT, 0.1% Tween-20, 0.2 mg/ml BSA; 25 C; 10 min per concentration, then washed
Details: tags: His6-TwinStrep-SUMO cleaved; N-terminal SNAP kept (SNAP-Surface 488); label: 3' end held by stalled T7 RNA polymerase

Row | Binder | Kd
1 | B1 | 48 ± 4 nM
2 | B2 | 8.9 ± 0.5 nM
3 | B3 | 44 ± 5 nM
4 | B4 | 34 ± 4 nM
5 | B5 | 12.9 ± 1.4 nM
6 | B6 | 36 ± 4 nM
7 | B7 | 10 ± 0.5 nM
8 | B8 | 14.4 ± 0.7 nM
9 | B9 | 30.3 ± 2.3 nM
10 | B10 | 32.7 ± 2.9 nM
11 | B11 | 15.7 ± 1.1 nM
12 | B12 | 22.3 ± 2 nM
13 | B13 | 50 ± 10 nM
14 | B14 | 13 ± 0.9 nM
15 | B15 | 73 ± 12 nM
16 | B16 | 68 ± 7 nM
17 | B17 | 47.4 ± 3 nM
18 | B18 | 14.7 ± 1.5 nM

Row | Binder | Kd
19 | B19 | 18 ± 0.8 nM
20 | B20 | 16.4 ± 0.8 nM
21 | B21 | ~90 nM
22 | B22 | 9.1 ± 0.5 nM
23 | B23 | 29.5 ± 2.4 nM
24 | B24 | 6.5 ± 0.27 nM
25 | B25 | 17.9 ± 1 nM
26 | B26 | 5.79 ± 0.32 nM
27 | B27 | 54 ± 15 nM
28 | B28 | 46 ± 5 nM
29 | B29 | 31.4 ± 1.6 nM
30 | B30 | 22.1 ± 1.4 nM
31 | B31 | 6.14 ± 0.25 nM
32 | B32 | 27.2 ± 1.8 nM
33 | B33 | 14.5 ± 0.7 nM
34 | B34 | 37 ± 5 nM
35 | B35 | 74 ± 32 nM
